In article PMC9602544 one finds absorbance data, which are given here for one substance.

This assay deals with human plasma fibronectin (human). The experiment in a line: ELISA; whole-cell ELISA; 1 ug human plasma Fn coated on Maxisorp wells, blocked with 2% BSA; ca. 2.5 x 10^7 washed bacteria added for 2 h at 37°C; attached bacteria detected with anti-B. henselae IgG, absorbance at 450 nm; triplicate. For orientation: In an ELISA, binding on a coated surface is turned into a signal by an enzyme label.
Sequence of human plasma fibronectin (human) (P02751 32-2477): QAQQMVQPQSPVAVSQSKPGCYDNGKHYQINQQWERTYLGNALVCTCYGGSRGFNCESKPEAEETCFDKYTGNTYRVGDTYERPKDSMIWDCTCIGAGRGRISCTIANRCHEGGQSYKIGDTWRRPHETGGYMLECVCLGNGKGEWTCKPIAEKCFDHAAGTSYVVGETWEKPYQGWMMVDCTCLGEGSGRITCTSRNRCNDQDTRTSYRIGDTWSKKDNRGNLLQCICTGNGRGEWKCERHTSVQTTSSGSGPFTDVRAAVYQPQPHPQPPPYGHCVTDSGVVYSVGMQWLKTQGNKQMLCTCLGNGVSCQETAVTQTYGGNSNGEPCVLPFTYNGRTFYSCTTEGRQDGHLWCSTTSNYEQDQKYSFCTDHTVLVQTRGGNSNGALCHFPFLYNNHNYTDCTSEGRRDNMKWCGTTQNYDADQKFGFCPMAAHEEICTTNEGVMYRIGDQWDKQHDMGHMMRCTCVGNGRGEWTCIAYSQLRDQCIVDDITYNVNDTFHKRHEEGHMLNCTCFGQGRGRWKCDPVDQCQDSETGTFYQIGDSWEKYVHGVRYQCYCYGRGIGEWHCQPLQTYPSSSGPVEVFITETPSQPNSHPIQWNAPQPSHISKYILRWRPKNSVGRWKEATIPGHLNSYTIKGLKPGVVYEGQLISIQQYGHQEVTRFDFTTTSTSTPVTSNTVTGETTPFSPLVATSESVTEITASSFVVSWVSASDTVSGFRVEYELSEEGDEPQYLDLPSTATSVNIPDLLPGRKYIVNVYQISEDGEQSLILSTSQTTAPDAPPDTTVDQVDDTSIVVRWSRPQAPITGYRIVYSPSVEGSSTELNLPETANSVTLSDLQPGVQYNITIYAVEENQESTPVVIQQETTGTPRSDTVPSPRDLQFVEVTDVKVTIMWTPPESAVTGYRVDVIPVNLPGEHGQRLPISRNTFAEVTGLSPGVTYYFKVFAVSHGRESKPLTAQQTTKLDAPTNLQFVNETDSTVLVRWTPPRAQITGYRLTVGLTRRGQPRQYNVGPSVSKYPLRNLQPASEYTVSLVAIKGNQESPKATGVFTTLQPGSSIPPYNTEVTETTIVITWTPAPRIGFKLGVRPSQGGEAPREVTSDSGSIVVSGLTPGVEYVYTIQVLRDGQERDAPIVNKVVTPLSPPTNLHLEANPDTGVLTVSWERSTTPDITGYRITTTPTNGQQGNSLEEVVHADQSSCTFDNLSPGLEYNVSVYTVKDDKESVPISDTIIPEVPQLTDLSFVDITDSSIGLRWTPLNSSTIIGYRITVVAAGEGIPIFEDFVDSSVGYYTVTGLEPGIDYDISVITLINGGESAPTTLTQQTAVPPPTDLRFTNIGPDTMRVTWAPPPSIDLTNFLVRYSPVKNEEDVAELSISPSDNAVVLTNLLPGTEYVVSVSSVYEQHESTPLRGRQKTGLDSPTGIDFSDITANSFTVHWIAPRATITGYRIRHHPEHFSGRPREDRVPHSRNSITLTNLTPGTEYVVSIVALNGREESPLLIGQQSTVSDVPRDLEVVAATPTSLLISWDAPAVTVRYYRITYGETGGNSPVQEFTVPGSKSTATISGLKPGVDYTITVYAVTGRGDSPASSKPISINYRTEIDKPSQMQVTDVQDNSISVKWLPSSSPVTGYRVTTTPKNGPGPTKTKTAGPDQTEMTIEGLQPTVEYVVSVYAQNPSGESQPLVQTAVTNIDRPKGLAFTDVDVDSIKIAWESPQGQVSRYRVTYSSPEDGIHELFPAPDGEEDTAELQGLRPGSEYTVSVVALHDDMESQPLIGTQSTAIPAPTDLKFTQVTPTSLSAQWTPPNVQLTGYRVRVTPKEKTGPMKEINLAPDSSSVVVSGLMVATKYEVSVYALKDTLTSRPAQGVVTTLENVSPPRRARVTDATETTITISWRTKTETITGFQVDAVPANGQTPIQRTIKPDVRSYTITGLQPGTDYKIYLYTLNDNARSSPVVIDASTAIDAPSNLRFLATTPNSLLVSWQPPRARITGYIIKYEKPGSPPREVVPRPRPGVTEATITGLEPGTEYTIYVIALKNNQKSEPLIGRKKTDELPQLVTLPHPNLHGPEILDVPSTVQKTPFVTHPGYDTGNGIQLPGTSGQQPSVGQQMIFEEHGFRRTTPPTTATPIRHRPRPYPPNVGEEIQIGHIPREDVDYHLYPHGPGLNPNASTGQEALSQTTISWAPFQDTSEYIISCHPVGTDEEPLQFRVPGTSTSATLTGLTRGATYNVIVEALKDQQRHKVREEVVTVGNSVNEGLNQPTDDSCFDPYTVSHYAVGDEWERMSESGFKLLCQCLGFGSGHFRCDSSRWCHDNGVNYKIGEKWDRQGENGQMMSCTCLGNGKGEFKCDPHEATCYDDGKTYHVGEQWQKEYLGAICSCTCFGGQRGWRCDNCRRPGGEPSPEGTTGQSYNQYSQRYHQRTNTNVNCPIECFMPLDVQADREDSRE

Substance “Bartonella adhesin A (BadA) of B. henselae Marseille, wild type (from UniProt Q5MWV9 48-3082) (natural protein)” registered an absorbance at 450 nm, whole-cell ELISA of 0.908.
